{
  "source": "paper PMC11333002",
  "about": "“Molecular dynamics simulations reveal how vinculin refolds partially unfolded talin rod helices to stabilize them against mechanical force” (PLOS Computational Biology, 2024)",
  "molecules": {"B1": {"name": "Q19S vinculin: full-length mEmerald-vinculin with Q19S mutation (protein, UniProt Q64727 1-1066, looked up, variant Q19S)", "chain": "MPVFHTRTIESILEPVAQSISHLVIMHEEGEVDGKAIPDLTAPVAAVQAAVSNLVRVGKETVQTTEDQILKRDMPPAFIKVENACTKLVQAAQMLQSDPYSVPARDYLIDGSRGILSGTSDLLLTFDEAEVRKIIRVCKGILEYLTVAEVVETMEDLVTYTKNLGPGMTKMAKMIDERQQELTHQEHRVMLVNSMNTVKELLPVLISAMKIFVTTKNSKNQGIEEALKNRNFTVEKMSAEINEIIRVLQLTSWDEDAWASKDTEAMKRALASIDSKLNQAKGWLRDPNASPGDAGEQAIRQILDEAGKVGELCAGKERREILGTCKMLGQMTDQVADLRARGQGASPVAMQKAQQVSQGLDVLTAKVENAARKLEAMTNSKQSIAKKIDAAQNWLADPNGGPEGEEQIRGALAEARKIAELCDDPKERDDILRSLGEIAALTSKLGDLRRQGKGDSPEARALAKQVATALQNLQTKTNRAVANSRPAKAAVHLEGKIEQAQRWIDNPTVDDRGVGQAAIRGLVAEGHRLANVMMGPYRQDLLAKCDRVDQLTAQLADLAARGEGESPQARALASQLQDSLKDLKAQMQEAMTQEVSDVFSDTTTPIKLLAVAATAPPDAPNREEVFDERAANFENHSGRLGATAEKAAAVGTANKSTVEGIQASVKTARELTPQVISAARILLRNPGNQAAYEHFETMKNQWIDNVEKMTGLVDEAIDTKSLLDASEEAIKKDLDKCKVAMANIQPQMLVAGATSIARRANRILLVAKREVENSEDPKFREAVKAASDELSKTISPMVMDAKAVAGNISDPGLQKSFLDSGYRILGAVAKVREAFQPQEPDFPPPPPDLEQLRLTDELAPPKPPLPEGEVPPPRPPPPEEKDEEFPEQKAGEVINQPMMMAARQLHDEARKWSSKGNDIIAAAKRMALLMAEMSRLVRGGSGTKRALIQCAKDIAKASDEVTRLAKEVAKQCTDKRIRTNLLQVCERIPTISTQLKILSTVKATMLGRTNISDEESEQATEMLVHNAQNLMQSVKETVREAEAASIKIRTDAGFTLRWVRKTPWYQ", "modifications": "full-length mEmerald", "notes": "full-length mEmerald-vinculin with Q19S mutation"}, "B2": {"name": "vinculin: vinculin in cited magnetic tweezers experiments with talin (protein, UniProt P18206 1-1134, looked up)", "Vinculin": "MPVFHTRTIESILEPVAQQISHLVIMHEEGEVDGKAIPDLTAPVAAVQAAVSNLVRVGKETVQTTEDQILKRDMPPAFIKVENACTKLVQAAQMLQSDPYSVPARDYLIDGSRGILSGTSDLLLTFDEAEVRKIIRVCKGILEYLTVAEVVETMEDLVTYTKNLGPGMTKMAKMIDERQQELTHQEHRVMLVNSMNTVKELLPVLISAMKIFVTTKNSKNQGIEEALKNRNFTVEKMSAEINEIIRVLQLTSWDEDAWASKDTEAMKRALASIDSKLNQAKGWLRDPSASPGDAGEQAIRQILDEAGKVGELCAGKERREILGTCKMLGQMTDQVADLRARGQGSSPVAMQKAQQVSQGLDVLTAKVENAARKLEAMTNSKQSIAKKIDAAQNWLADPNGGPEGEEQIRGALAEARKIAELCDDPKERDDILRSLGEISALTSKLADLRRQGKGDSPEARALAKQVATALQNLQTKTNRAVANSRPAKAAVHLEGKIEQAQRWIDNPTVDDRGVGQAAIRGLVAEGHRLANVMMGPYRQDLLAKCDRVDQLTAQLADLAARGEGESPQARALASQLQDSLKDLKARMQEAMTQEVSDVFSDTTTPIKLLAVAATAPPDAPNREEVFDERAANFENHSGKLGATAEKAAAVGTANKSTVEGIQASVKTARELTPQVVSAARILLRNPGNQAAYEHFETMKNQWIDNVEKMTGLVDEAIDTKSLLDASEEAIKKDLDKCKVAMANIQPQMLVAGATSIARRANRILLVAKREVENSEDPKFREAVKAASDELSKTISPMVMDAKAVAGNISDPGLQKSFLDSGYRILGAVAKVREAFQPQEPDFPPPPPDLEQLRLTDELAPPKPPLPEGEVPPPRPPPPEEKDEEFPEQKAGEVINQPMMMAARQLHDEARKWSSKPGIPAAEVGIGVVAEADAADAAGFPVPPDMEDDYEPELLLMPSNQPVNQPILAAAQSLHREATKWSSKGNDIIAAAKRMALLMAEMSRLVRGGSGTKRALIQCAKDIAKASDEVTRLAKEVAKQCTDKRIRTNLLQVCERIPTISTQLKILSTVKATMLGRTNISDEESEQATEMLVHNAQNLMQSVKETVREAEAASIKIRTDAGFTLRWVRKTPWYQ"}},
  "key": {"[1]": {"target": "mouse talin1 R1 VBS (H4) peptide, fluorescein labelled (mouse)", "sequence (peptide, as listed by the source)": "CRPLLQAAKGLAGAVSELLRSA", "experiment": "fluorescence polarisation; fluorescein-labelled VBS peptide at 700 nM, 2-fold serial dilution of protein, triplicate, 25°C; one-site total binding equation"}, "[2]": {"tested_on": "Vinculin-null mouse embryonic fibroblasts (MEF)", "experiment": "Adhesion localization, vinculin/talin intensity (immunostaining, confocal)", "format": "cell-based", "conditions": "full-length vinculin; vs WT vinculin; n = 22 (WT) and 23 (Q19S) cells", "method": "Vinculin-null mouse embryonic fibroblasts (MEF) were a kind gift from Prof. Carsten Grashoff (University of Münster) and have been previously described. Cells were maintained at 10–80% confluency in high-glucose Dulbecco’s modified Eagle medium with GlutaMax (10566016, Thermo Fisher Scientific) supplemented with 10% fetal bovine serum (Gibco) in a humidified 37°C, 5% CO2 incubator. For FRAP experiments, Vin-/- MEF cells were adapted to FluoroBrite DMEM medium (Thermo Fisher Scientific) supplemented with 10% fetal bovine serum and 1% GlutaMax for a minimum of 48 hours.\nmEmerald-Vinculin-N-21 was a gift from Michael Davidson (Addgene plasmid # 54304; http://n2t.net/addgene:54304; RRID:Addgene_54304). To restore the wildtype human vinculin sequence, L234V backmutation was introduced to all vinculin constructs. Q19S mutation was introduced by GenScript cloning service. All plasmid constructs were authenticated by sequencing. Vin-/- MEF cells were transfected with the Neon transfection system (Thermo Fisher Scientific). […]\nFor adhesion intensity analysis, immunostained cells were imaged using a Nikon Eclipse Ti2-E inverted microscope equipped with A1R+ laser scanning confocal unit (Nikon) and Nikon CFI Plan Apo IR SR 60x WI (NA 1.27) objective. […] Talin and vinculin intensities in adhesion sites were analyzed using Fiji distribution of ImageJ 1.53t. […]"}, "talin": {"tested_on": "talin", "conditions": "cited from earlier work", "excerpt": "(Fig 1H). However, how the complexation occurs when the VBS structure is destabilized by force remains unclear. ... || Constant velocity SMD is known to overestimate the unfolding force magnitude, and the measured unfolding forces were approximately one order of magnitude higher when compared to the force required experimentally for vinculin dissociation from talin (above 25 pN). Therefore, to reach unfolding force magnitude within the force range seen in previous studies (<100 pN), we performed microsecond-scale constant force SMD simulations. Using constant force at 70 pN, we achieved limited but noticeable VBS destabilization in the vinculin-bound state within 3 μs. Increasing the fo ... || To assess the thermodynamic parameters of recognition and binding of partially unfolded talin VBS by vinculin, we used umbrella sampling and the weighted histogram analysis method to calculate the vinculin–VBS binding energy profiles. We used two different starting states of VBS: 1) fully α-helical VBS and 2) partially unfolded VBS, stretched by 1.5 nm. This distance was chosen to be consistent with the previously observed contractions upon vinculin binding to R3 (∼1.5–2.5 nm per VBS, depending on force magnitude). The whole process of vinculin–VBS binding was divided into three ... || (+ 2 further places)"}},
  "note": "Like-named read-outs stand apart in the source and are kept apart here.",
  "data": [
    {"molecule": "VD1 domain of mouse vinculin, Q19S (domain or fragment)", "values": [
      {"measurement": "fold higher affinity than WT mVD1", "setting": "[1]", "result": 1.75, "unit": "fold"}
    ]},
    {"molecule": "B1", "values": [
      {"measurement": "incorporation into talin-rich focal adhesions", "setting": "[2]", "result": "incorporated into talin-rich focal adhesions similarly"}
    ]},
    {"molecule": "B2", "values": [
      {"measurement": "vinculin–VBS binding above 15 pN", "setting": "talin; above 15 pN, ref [26]", "result": "fast transition"},
      {"measurement": "increase in talin end-to-end distance on vinculin dissociation", "setting": "talin; above 25 pN, ref [22],[26]", "result": "~3", "unit": "nm"},
      {"measurement": "contraction per VBS on vinculin binding to R3", "setting": "talin; depending on force magnitude, ref [26]", "result": "1.5–2.5 nm"},
      {"measurement": "time of vinculin–VBS binding under lower forces", "setting": "talin; lower forces, ref [26]", "result": "within hundreds of milliseconds"},
      {"measurement": "force for vinculin dissociation from talin", "setting": "talin; ref [22],[26]", "result": "above 25 pN"},
      {"measurement": "reduction in talin end-to-end distance on vinculin binding", "setting": "talin; talin R3, 9 pN, ref [26]", "result": "~ 1.5 nm"},
      {"measurement": "reduction in talin end-to-end distance on vinculin binding", "setting": "talin; talin R3, 20 pN, ref [26]", "result": "~ 2.5 nm"}
    ]}
  ]
}
